Measured values from paper PMC10512533, “A strategy to enhance and modify fatty acid synthesis in Corynebacterium glutamicum and Escherichia coli: overexpression of acyl-CoA thioesterases” (Microbial Cell Factories, 2023).

Columns and labels:
Experiment in all cases: thioesterase assay, Lineweaver-Burk plot
TesA = molecular target: T1, TesA (Corynebacterium glutamicum, UniProt Q8NMW3); assay type: biochemical; details: optimal substrate; assay conditions of the kinetics not stated (optimum 30 °C, pH 8.0)
T1 construct: gene Cgl2451; full length in pET-28a(+), His-tag (Ni-NTA), E. coli BL21(DE3); forward primer encodes MAANN start; TE1 family
T1 sequence (Q8NMW3 1-155): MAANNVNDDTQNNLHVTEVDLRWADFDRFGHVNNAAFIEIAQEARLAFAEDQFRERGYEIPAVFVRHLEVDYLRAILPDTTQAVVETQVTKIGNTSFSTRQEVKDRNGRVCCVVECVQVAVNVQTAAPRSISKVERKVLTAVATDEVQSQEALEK
Excerpt: thioesterase assay, Lineweaver-Burk plot on TesA | of TesA estimated through fitting to the Michaelis–Menten equation

[1] = substrate: CCCCCCCC(=O)SCCNC(=O)CCNC(=O)[C@H](O)C(C)(C)COP(=O)(O)OP(=O)(O)OC[C@H]1O[C@@H](n2cnc3c(N)ncnc32)[C@H](O)[C@@H]1OP(=O)(O)O; assay type: biochemical, Corynebacterium glutamicum; details: optimal substrate, assay conditions of the kinetics not stated (optimum 30 °C, pH 8.0), authors' other TesB properties (Fig. 5) come from their previous studies
[2] = substrate: CC(=O)SCCNC(=O)CCNC(=O)[C@H](O)C(C)(C)COP(=O)(O)OP(=O)(O)OC[C@H]1O[C@@H](n2cnc3c(N)ncnc32)[C@H](O)[C@@H]1OP(=O)(O)O; assay type: biochemical, Corynebacterium glutamicum; details: optimal substrate, assay conditions of the kinetics not stated (optimum 30 °C, pH 9.0)

With CCCCCCCCCCCC(=O)SCCNC(=O)CCNC(=O)[C@H](O)C(C)(C)COP(=O)(O)OP(=O)(O)OC[C@H]1O[C@@H](n2cnc3c(N)ncnc32)[C@H](O)[C@@H]1OP(=O)(O)O [C12, lauroyl-CoA] the Km (TesA) was 1.38 mM.

B1: TesB (Corynebacterium glutamicum ATCC 13032) (protein)
chain: MKTIEDILTLEEIDRDIYRGPVIESYLARTFGGQVAAQALVAATHTVDKAFTVHSLHGYFIAPGDPTAPAIYLVDRVRDGKSYVTRSVRGIQDGEVIFSMQASFHRGDEGIEHMDKMRKVPAPDEIKGTVERMPISSRRVLDEWAEWDIRVIPQDQLELSDFTATEQAVWIRCTADLPDNPTFHQCSLTYLSDMTLLHSALVPHPGEKMQMASLDHAVWFLRPFRVDEWLLYDQRSPSASSGRALTHGRLFNQQGDLVAIVNQEGMTRTLHEGAQSIPMRKD
notes: full length in pET-28a(+), His-tag (Ni-NTA), E. coli BL21(DE3); forward primer encodes MKTIE start; TE4 family
Work on B1 yielded a Km [1] of 5.45 mM.

B2: TE9 (Corynebacterium glutamicum ATCC 13032) (protein)
chain: MFLTLSGADMSALIKGSGPHHVVVLNGWFGHAAGWGAFADYLDLGNYTWHFWDYRGYGNRKDDAGEFTLEEISADIVAYIDSIEAEKVSILGHSMGGVFMQKVLADSATPIASLVGISAVAAAGTPFDEDSRKLFTSAGHNPDSRRAIIDFTSGSRQPAAWLDDLTDSTVQNSTPEAVEKYFFAWADCNFAADLGTQDLPVYILTGDLDPAVTKTAVESAFGPIYQNLTVEELHDVGHYAIFEHPLGLAARVLRFLDAV
notes: full length in pET-28a(+), His-tag (Ni-NTA), E. coli BL21(DE3); forward primer encodes MFLTL start
B2 showed a Km [2] of 1.81 mM.
